These results are taken from PMC6172466 (EMBO Reports, 2018).

Test [1] deals with T1, N-terminally TAMRA-labeled monoubiquitin (UniProt P0CG48 1-76, TAMRA on the N-terminus).
T1 construct: ubiquitin with a free C-terminus; also called TAMRA-monoubiquitin; ubiquitin labeled with an N-terminal fluorophore
Put plainly: fluorescence polarisation; equilibrium binding of USP4 to TAMRA-labelled ubiquitin species; as described in ref. 32. As to conditions: both partners purified. A general note: Fluorescence polarisation rises when a labelled molecule tumbles more slowly, as on binding a larger partner.

In test [2] the target is T2, ubiquitin (untagged) (UniProt P0CG48 1-76).
T2 construct: ubiquitin, untagged (pET3a), free C-terminus at Gly76; also called monoubiquitin; free ubiquitin; source: E. coli Rosetta 2, purified (perchloric acid, HiTrap SP, HiLoad S75)
Nature of the test: ITC; 30 μM DUBm in the cell, 0.3 mM K48-linked diubiquitin or monoubiquitin injected; 25°C; 20 mM HEPES pH 7, 150 mM NaCl, 5 nM ZnCl2, 0.5 mM TCEP; one-site binding model. As to conditions: both partners purified. In general terms: In ITC the heat of successive injections is recorded.

Usually Kd stands for a measure of binding affinity in units of concentration.

B1: USP4 (8-925) C311A (enzyme, human, UniProt Q13107 8-925, looked up)
chain: RERPDAETQKSELGPLMRTTLQRGAQWYLIDSRWFKQWKKYVGFDSWDMYNVGEHNLFPGPIDNSGLFSDPESQTLKEHLIDELDYVLVPTEAWNKLLNWYGCVEGQQPIVRKVVEHGLFVKHCKVEVYLLELKLCENSDPTNVLSCHFSKADTIATIEKEMRKLFNIPAERETRLWNKYMSNTYEQLSKLDNTVQDAGLYQGQVLVIEPQNEDGTWPRQTLQSKSSTAPSRNFTTSPKSSASPYSSVSASLIANGDSTSTCGMHSSGVSRGGSGFSASYNCQEPPSSHIQPGLCGLGNLGNTAFMNSALQCLSNTAPLTDYFLKDEYEAEINRDNPLGMKGEIAEAYAELIKQMWSGRDAHVAPRMFKTQVGRFAPQFSGYQQQDSQELLAFLLDGLHEDLNRVKKKPYLELKDANGRPDAVVAKEAWENHRLRNDSVIVDTFHGLFKSTLVCPECAKVSVTFDPFCYLTLPLPLKKDRVMEVFLVPADPHCRPTQYRVTVPLMGAVSDLCEALSRLSGIAAENMVVADVYNHRFHKIFQMDEGLNHIMPRDDIFVYEVCSTSVDGSECVTLPVYFRERKSRPSSTSSASALYGQPLLLSVPKHKLTLESLYQAVCDRISRYVKQPLPDEFGSSPLEPGACNGSRNSCEGEDEEEMEHQEEGKEQLSETEGSGEDEPGNDPSETTQKKIKGQPCPKRLFTFSLVNSYGTADINSLAADGKLLKLNSRSTLAMDWDSETRRLYYDEQESEAYEKHVSMLQPQKKKKTTVALRDCIELFTTMETLGEHDPWYCPNCKKHQQATKKFDLWSLPKILVVHLKRFSYNRYWRDKLDTVVEFPIRGLNMSEFVCNLSARPYVYDLIAVSNHYGAMGVGHYTAYAKNKLNGKWYYFDDSNVSLASEDQIVTKAAYVLFYQRRDD
notes: human USP4, residues 8-925, active site cysteine C311 changed to alanine; also called USP4^C311A; USP4 C311A
Turning to B1, binding in test [1] was characterised by a dissociation constant (Kd) of 0.6 ± 0.17 nM.

B2: SAGA DUB module containing wild-type Ubp8 (complex, yeast)
chain 1: MSICPHIQQVFQNEKSKDGVLKTCNAARYILNHSVPKEKFLNTMKCGTCHEINSGATFMCLQCGFCGCWNHSHFLSHSKQIGHIFGINSNNGLLFCFKCEDYIGNIDLINDAILAKYWDDVCTKTMVPSMERRDGLSGLINMGSTCFMSSILQCLIHNPYFIRHSMSQIHSNNCKVRSPDKCFSCALDKIVHELYGALNTKQASSSSTSTNRQTGFIYLLTCAWKINQNLAGYSQQDAHEFWQFIINQIHQSYVLDLPNAKEVSRANNKQCECIVHTVFEGSLESSIVCPGCQNNSKTTIDPFLDLSLDIKDKKKLYECLDSFHKKEQLKDFNYHCGECNSTQDAIKQLGIHKLPSVLVLQLKRFEHLLNGSNRKLDDFIEFPTYLNMKNYCSTKEKDKHSENGKVPDIIYELIGIVSHKGTVNEGHYIAFCKISGGQWFKFNDSMVSSISQEEVLKEQAYLLFYTIRQVN
chain 2: MTEETITIDSISNGILNNLLTTLIQDIVARETTQQQLLKTRYPDLRSYYFDPNGSLDINGLQKQQESSQYIHCENCGRDVSANRLAAHLQRCLSRGARR
chain 3: MTMDTAQLKSQIQQYLVESGNYELISNELKARLLQEGWVDKVKDLTKSEMNINESTNFTQILSTVEPKALEMVSDSTRETVLKQIREFLEEIVDTQ
chain 4: MRSGDAEIKGIKPKVIEEYSLSQGSGPSNDSWKSLMSSAKDTPLQYDHMNRESLKKYFNPNAQLIEDPLDKPIQYRVCEKCGKPLALTAIVDHLEN
notes: Ubp8, catalytic USP subunit of the yeast SAGA DUB module; Sgf11, subunit of the yeast SAGA DUB module (pCDFDuet-1 MCSI); Sus1, subunit of the yeast SAGA DUB module (pRSF-1); Sgf73 residues 1-96, subunit of the yeast SAGA DUB module (pCDFDuet-1 MCSII); Heterotetramer; also called DUBm-Ubp8^WT; wild-type DUBm; copies: + + +
In turn, B2 yielded a Kd in test [2] of 13.9 µM.

B3: SAGA DUB module containing Ubp8^C146S (complex, yeast)
chain 1: MSICPHIQQVFQNEKSKDGVLKTCNAARYILNHSVPKEKFLNTMKCGTCHEINSGATFMCLQCGFCGCWNHSHFLSHSKQIGHIFGINSNNGLLFCFKCEDYIGNIDLINDAILAKYWDDVCTKTMVPSMERRDGLSGLINMGSTSFMSSILQCLIHNPYFIRHSMSQIHSNNCKVRSPDKCFSCALDKIVHELYGALNTKQASSSSTSTNRQTGFIYLLTCAWKINQNLAGYSQQDAHEFWQFIINQIHQSYVLDLPNAKEVSRANNKQCECIVHTVFEGSLESSIVCPGCQNNSKTTIDPFLDLSLDIKDKKKLYECLDSFHKKEQLKDFNYHCGECNSTQDAIKQLGIHKLPSVLVLQLKRFEHLLNGSNRKLDDFIEFPTYLNMKNYCSTKEKDKHSENGKVPDIIYELIGIVSHKGTVNEGHYIAFCKISGGQWFKFNDSMVSSISQEEVLKEQAYLLFYTIRQVN
chain 2: MTEETITIDSISNGILNNLLTTLIQDIVARETTQQQLLKTRYPDLRSYYFDPNGSLDINGLQKQQESSQYIHCENCGRDVSANRLAAHLQRCLSRGARR
chain 3: MTMDTAQLKSQIQQYLVESGNYELISNELKARLLQEGWVDKVKDLTKSEMNINESTNFTQILSTVEPKALEMVSDSTRETVLKQIREFLEEIVDTQ
chain 4: MRSGDAEIKGIKPKVIEEYSLSQGSGPSNDSWKSLMSSAKDTPLQYDHMNRESLKKYFNPNAQLIEDPLDKPIQYRVCEKCGKPLALTAIVDHLEN
notes: Ubp8, catalytic USP subunit of the yeast SAGA DUB module, active site cysteine changed; Sgf11, subunit of the yeast SAGA DUB module (pCDFDuet-1 MCSI); Sus1, subunit of the yeast SAGA DUB module (pRSF-1); Sgf73 residues 1-96, subunit of the yeast SAGA DUB module (pCDFDuet-1 MCSII); Heterotetramer; also called DUBm-Ubp8^C146S; copies: + + +
With B3, in test [2], the equilibrium dissociation constant (Kd) came out at 12.8 µM.

B4: SAGA DUB module containing Ubp8^C146A (complex, yeast)
chain 1: MSICPHIQQVFQNEKSKDGVLKTCNAARYILNHSVPKEKFLNTMKCGTCHEINSGATFMCLQCGFCGCWNHSHFLSHSKQIGHIFGINSNNGLLFCFKCEDYIGNIDLINDAILAKYWDDVCTKTMVPSMERRDGLSGLINMGSTAFMSSILQCLIHNPYFIRHSMSQIHSNNCKVRSPDKCFSCALDKIVHELYGALNTKQASSSSTSTNRQTGFIYLLTCAWKINQNLAGYSQQDAHEFWQFIINQIHQSYVLDLPNAKEVSRANNKQCECIVHTVFEGSLESSIVCPGCQNNSKTTIDPFLDLSLDIKDKKKLYECLDSFHKKEQLKDFNYHCGECNSTQDAIKQLGIHKLPSVLVLQLKRFEHLLNGSNRKLDDFIEFPTYLNMKNYCSTKEKDKHSENGKVPDIIYELIGIVSHKGTVNEGHYIAFCKISGGQWFKFNDSMVSSISQEEVLKEQAYLLFYTIRQVN
chain 2: MTEETITIDSISNGILNNLLTTLIQDIVARETTQQQLLKTRYPDLRSYYFDPNGSLDINGLQKQQESSQYIHCENCGRDVSANRLAAHLQRCLSRGARR
chain 3: MTMDTAQLKSQIQQYLVESGNYELISNELKARLLQEGWVDKVKDLTKSEMNINESTNFTQILSTVEPKALEMVSDSTRETVLKQIREFLEEIVDTQ
chain 4: MRSGDAEIKGIKPKVIEEYSLSQGSGPSNDSWKSLMSSAKDTPLQYDHMNRESLKKYFNPNAQLIEDPLDKPIQYRVCEKCGKPLALTAIVDHLEN
notes: Ubp8, catalytic USP subunit of the yeast SAGA DUB module, active site cysteine changed; Sgf11, subunit of the yeast SAGA DUB module (pCDFDuet-1 MCSI); Sus1, subunit of the yeast SAGA DUB module (pRSF-1); Sgf73 residues 1-96, subunit of the yeast SAGA DUB module (pCDFDuet-1 MCSII); Heterotetramer; also called DUBm-Ubp8^C146A; DUB module-Ubp8^C146A; copies: + + +
Take B4: the affinity in test [2], expressed as Kd, was 0.43 µM.
